Data from publication PMC5078793.

Molecular target: ADAMTS6 C-terminal region (human) (UniProt Q9UKP5)
Experiment: SPR; Biacore; ADAMTS protein (full-length or C-terminal region) immobilised by amine coupling on CM5 (~3000 RU); analyte injected at 30 ul/min; 10 mM HEPES pH 7.4, 0.1 M NaCl, 0.5 mM CaCl2, 0.005% P20; 1:1 kinetics or equilibrium analysis

Sequence of ADAMTS6 C-terminal region (human) (Q9UKP5 558-1117): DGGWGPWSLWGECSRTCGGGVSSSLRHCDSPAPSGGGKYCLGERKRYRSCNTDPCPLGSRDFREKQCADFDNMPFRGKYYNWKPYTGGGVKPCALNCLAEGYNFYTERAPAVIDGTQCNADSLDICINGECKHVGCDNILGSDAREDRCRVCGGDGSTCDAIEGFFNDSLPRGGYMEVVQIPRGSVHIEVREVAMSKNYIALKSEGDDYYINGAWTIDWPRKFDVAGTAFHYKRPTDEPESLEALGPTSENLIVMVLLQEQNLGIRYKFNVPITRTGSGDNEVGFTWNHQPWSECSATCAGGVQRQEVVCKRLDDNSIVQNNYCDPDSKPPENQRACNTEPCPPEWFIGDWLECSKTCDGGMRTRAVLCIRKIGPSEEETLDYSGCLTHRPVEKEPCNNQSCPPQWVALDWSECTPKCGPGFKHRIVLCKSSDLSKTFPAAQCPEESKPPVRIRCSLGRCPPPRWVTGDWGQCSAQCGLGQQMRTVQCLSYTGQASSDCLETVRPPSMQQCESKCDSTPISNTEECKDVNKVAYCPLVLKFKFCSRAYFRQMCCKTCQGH

Kd: 9.8 nM
Substance: cellular fibronectin (natural protein)
